Data on 1 molecule can be found in paper PMC5384801 (mAbs, 2016).

This experiment deals with trimeric HIV-1 YU-2 gp140 Env (HIV-1 YU-2 (clade B), UniProt P35961, strain). The experiment can be described thus: ELISA. In general terms: In an ELISA, binding on a coated surface is turned into a signal by an enzyme label.

B1: 8C chimeric mAb (bovine V regions, human IgG1/lambda constant regions) (antibody, V domains shown)
VH: QVQLRESGPSLVKPSQTLSLTCTVSGFSLSRYDVNWVRQAPGKALEWVGVISGDGITGYNPALKSRLSITKDNSKSQLSLSVSSVTPEDTATYYCESWVCVGGRDDVCHSDWGQGLLVTVSS
VL: QAVLTQPTSVSVALGQTAKITCSGDLVDEQYTQWYQQKPGQGPVMVIYKDSERPSGISDRFSGSNSGKTATLTISGAQTEDEADYYCHSADSSHAVFGSGTTLTV
Regarding B1, the binding result is recorded as “no binding”.
